Legend:
histidine-tagged PD-1 = histidine-tagged PD-1 (UniProt Q15116 25-167); assay: Octet
21480B = assay: Octet

Chain of histidine-tagged PD-1 (Q15116 25-167): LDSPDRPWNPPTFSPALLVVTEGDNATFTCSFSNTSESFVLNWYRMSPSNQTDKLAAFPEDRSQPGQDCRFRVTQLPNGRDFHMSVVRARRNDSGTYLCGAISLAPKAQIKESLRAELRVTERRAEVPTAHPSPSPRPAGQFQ

Binder | Kd (histidine-tagged PD-1) | Kd (21480B)
XENP22553, humanized variant 1C11[PD-1]_H3L3 of anti-PD-1 clone 1C11 (antibody, V domains shown) VH: QIQLVQSGSELKKPGASVKVSCKASGYTFTHYGMNWVRQAPGQGLEWMGWINTYTGEPTYADGFTGRFVFSLDTSVSTAYLQISSLKAEDTAVYFCARDYYGSSPYWGQGTLVTVSS VL: DVLMTQSPDSLAVSLGERATINCKSSQSIVHSNGNTYLEWYQQKPGQSPKLLIYKVSNRFSGVPDRFSGSGSGTDFTLTISSLQAEDVAVYYCFQGSHVPNTFGGGTKVEIKR | 19.1 nM | –
IL2Rbeta (receptor) AVNGTSQFTCFYNSRANISCVWSQDGALQDTSCQVHAWPDRRRWNQTCELLPVSQASWACNLILGAPDSQKLTTVDIVTLRVLCREGVRWRVMAIQDFKPFENLRLMAPISLQVVHVETHRCNISWEISQASHYFERHLEFEARTLSPGHTWEEAPLLTLKQKQEWICLETLTPDTQYEFQVRVKPLQGEFTTWSPWSQPLAFRTKPAALGKD | – | 8.1 nM

— patent US20190389933A1 (published 2019)
